Reference: patent publication US20230086530A1

Experiments:
[1] = biological target: human CD47 on the cell membrane surface of CD47 positive tumor cells (Raji, NUGC-4, Jurkat) (human) (UniProt Q08722); assay: FACS on Raji cells, 0.5 µg/mL
[2] = biological target: human CD47 on the cell membrane surface of CD47 positive tumor cells (Raji, NUGC-4, Jurkat) (human) (UniProt Q08722); assay: FACS on Raji cells, 0.05 µg/mL

human CD47 on the cell membrane surface of CD47 positive tumor cells (Raji, NUGC-4, Jurkat) (human), sequence (Q08722 19-323): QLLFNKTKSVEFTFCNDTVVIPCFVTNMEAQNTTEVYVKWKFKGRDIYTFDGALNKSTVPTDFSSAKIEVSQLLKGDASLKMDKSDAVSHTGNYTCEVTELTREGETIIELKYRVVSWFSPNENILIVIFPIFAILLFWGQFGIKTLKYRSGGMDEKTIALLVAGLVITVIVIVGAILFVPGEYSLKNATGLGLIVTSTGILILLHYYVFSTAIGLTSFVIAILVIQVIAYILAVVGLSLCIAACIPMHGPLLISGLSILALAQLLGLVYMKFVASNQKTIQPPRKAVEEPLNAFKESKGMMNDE

- Mean fluorescence intensity (multiple) [1]: 1 fold
- Mean fluorescence intensity (multiple) [2]: 1 fold
Substance: isotype control antibody
